Reference: publication PMC10179162

Legend:
[1] = molecular target: chimeric HPV16 L1:P18I10 capsid protein (293F-derived, chromatography-purified L1:P18I10 VLP) (human papillomavirus type 16 | HIV-1) (UniProt P03101); experiment: non-reducing SDS-PAGE (disulfide cross-linking); purified VLPs mixed with 2x Laemmli sample buffer with or without 20 mM DTT, 15 min at room temperature; 8-16% gel; blot probed with anti-HPV16 L1 mAb CAMVIR-1
[2] = molecular target: chimeric HPV16 L1:P18I10 capsid protein (BEVS/IC-derived, ultracentrifugation-purified L1:P18I10 VLP) (human papillomavirus type 16 | HIV-1) (UniProt P03101); experiment: as above

chimeric HPV16 L1:P18I10 capsid protein (293F-derived, chromatography-purified L1:P18I10 VLP) (from UniProt P03101 1-129; P03101 137-505)
percent disulfide-bonded into oligomers (without DTT) [1]: > 99%
percent monomeric (with DTT) [1]: 80%

chimeric HPV16 L1:P18I10 capsid protein (BEVS/IC-derived, ultracentrifugation-purified L1:P18I10 VLP) (from UniProt P03101 1-129; P03101 137-505)
percent disulfide-bonded into oligomers (without DTT) [2]: > 99%
percent monomeric (with DTT) [2]: 50%
